Laboratory results taken from the DeepSol protein solubility set.

test: soluble on expression in E. coli; label from the status in PepcDB or PDB records

**Q.** Which “soluble on expression in E. coli” value does the source give for “MSLWKSMTYYQKMIQEPSREKLLPDPLKYPYVQPPYTLVLEMKDVLVHPDWTYQTGWRFKKRPGVDKFLETLAANYEIVVFTADQGMTVFPILDALDPRGYIMYRLVRDATHFVDGHHVKNLDNLNRDLSKVIVVDWDPNSTKLHPENTLNIPRWTGNDDDAGLFDLMAMLVTIATSEVEDVRDVMTYYKSFENPLVKFRENQRLLAEQMAEREHEEKQRNLPAVQRWRPSFLEGHHHHHH” here?
**A.** The value was “soluble”.

**Q.** Which “soluble on expression in E. coli” value does the source give for “MSLWLAGTWYTGQRIETESQTRLNEINAQLAAAFPEFPVRINQLKLERGFFTSQARYGVEVGKSEETGKPEATVEVDARIEHGPFAPGALARGKLMPQLAFVHAEVANTEDLKKVFEVTKGATPLWSDTVVAYNGDSTSTGGLAAIDYSGDEGKFAFSGATFDGSYQRATQAAIGSLKADSLALDASADDDGGPLLFTLDGLAVTVDSRMGKSGLSIGDSALSVKRLEVKQPEGDAHLTVADMAYAARIGEQDEFINGEISYGAGEITYNGIALGNGRAVFKAERLNAAAIKVVADEYNKAIKLQAEGKDPVPDNAEMRKLLMAQADTLLAGKPVLTLDPVQWKTAQGESVFNARVALSKPASSDLMAVDYFSQAIESIDASATLSKPMIKALMVGYLQSQEGMDAQQAAAAADQQVSSLAGMAEMMNLGKNEGDNIVSKFHYAAGTVDLNGRKMPADQLLGSILGGEGHHHHHH” here?
**A.** Its value is “not soluble”.

**Q.** With “MSLYKQTSIFDAKFDKNRPLADRMRPRTLDEFVGQEHILGKGKALRELIEKDSITSMILWGPPGVGKTTLAMIIANMTNSKFVNFSAVLSGIKEIKEIMAQAERDAMYGQRTVVFIDEIHRFNKAQQDAFLPHVEKGNIILIGATTENPSFEVNSALLSRSKVFMMKPLDVKDIMIILKRALKDEERGLGLYNVEIDEEKLEKIALFSNGDARVALNTLEMAVMAANVVNGKRVVTDEILSDVMQKKALLYDKAGEEHYNLISAFHKSLRNSDWDAALYWMARMLEAGEDPLYIARRMIRFASEDVGLADPQALSVAIAAYEASHYIGMPECSVNLAQAAVYLALAPKSNALYVAYNRVKKDAEETFAEPVPMHLRNAPTKLMKELGYGEGYKYAHDFEEKVTDMECLPENLKGRRYYIPTDSGFEKKLKERMEEILKLKGEGHHHHHH” as the sequence, how does the “soluble on expression in E. coli” value read?
**A.** The value was “soluble”.

**Q.** Which “soluble on expression in E. coli” value does the source give for “MSLYSSENDYIILEDKTATGKKRDWKGKKRRTNLMAEHYEALQSKTGIPYYGKKAEKLCSCAECLSFKRDPETGKLKLYQAQFCKVRLCPMCAWRRSLKIAYHNKLIVEEANRQYGCGWIFLTLTVRNVEGDGLKPMIADMMKGWNRLFGYKRVKVATLGYFRALEITKNHEEDTYHPHFHVLLPVKKSYFTHNYIKQSEWTSLWKRAMKLDYTPIVDIRRVKGRAKIDAEQIESDVREAMMEQKAVLEISKYPVKDTDVVRGNKVTEDNLNTVFYLDDALSARRLIGYGGILKEIHKELNLGDAEDGDLVKIEEEDDEVANEAFEVMAYWHPGIKNYIIREGHHHHHH” here?
**A.** The value was “not soluble”.

**Q.** For “MSLYSTPLKKRIDYDRETFTASASLGGNRLRNRPRDDQNNGKPNLSSRSFLSERKTRKDVLNKYGEAGNTIESELRDVTTHVKISGLTSSEPLQLASEFVQDLSFRDRNTPILDNPDYYSKGLDYNFSDEVGGLGAFTPFQRQQVTNIPDEVLSQVSNTEIKSDMGIFLELNYCWITSDNKLILWNINNSSEYHCIDEIEHTILKVKLVKPSPNTFVSSVENLLIVATLFDIYILTISFNDRTHELNIFNTGLKVNVTGFNVSNIISYERTGQIFFTGATDGVNVWELQYNCSENLFNSKSNKICLTKSNLANLLPTKLIPSIPGGKLIQKVLEGDAGTEEETISQLEVDQSRGVLHTLSTKSIVRSYLITSNGLVGPVLIDAAHIRRGMNALGVKNSPLLSNRAFKIAKIVSISMCENNDLFLAVITTTGVRLYFKGSISRRSIGSLKLDSVKFPPTSISSSLEQNKSFIIGHHPLNTHDTGPLSTQKASSTYINTTCASTIISPGIYFTCVRKRANSGELSKGITNKALLENKEEHKLYVSAPDYGILKNYGKEGHHHHHH”, which “soluble on expression in E. coli” value is on record?
**A.** Its value is “soluble”.

**Q.** With “MSLYVKMMEMGRMIDNCLYCGSATLLSIIHLANGKNAVTCGKCGLTRTIPVPSAEYSEVAEYFENYLLKEKLFRAFSRKLLDFVLSVVQNGRLLEVGCSVGFFLEEAKRAGFSVNGVELNEKAATLSKGKDFDVRNCMLREAGFPSHEFDVVVMSHVLEHIQDLREFLADIKVLLRPGGKVIVSQPTPDGIVPKMQKKKWYGWVPNEHVWHFTPKTLSLVFAENGFDVVKVERNSMYYSLWPSSLRGILVALVARTAAVLGLGDQFYLAATVSEKDSEGHHHHHH” as the sequence, how does the “soluble on expression in E. coli” value read?
**A.** The value was “not soluble”.

**Q.** For “MSMNRQEISDLCVKSLEGRMVGTEAQNIENGNAFYRYFFTNFPDLRVYFKGAEKYTADDVKKSERFDKQGQRILLACHLLANVYTNEEVFKGYVRETINRHRIYKMDPALWMAFFTVFTGYLESVGSLNDQQKAAWMALGKEFNAESQTHLKNSNLPHV”, which “soluble on expression in E. coli” value is on record?
**A.** The value was “soluble”.

**Q.** Which “soluble on expression in E. coli” value does the source give for “MSNDRPLIFVDLDDTLFQTARKTPADIEKHVATLDISGNANGYMTNVQKSFAHWLLAHADVVPVTARSVEAYSRVKLPFTAGAICSHGGVMLDVMGRLDPDWNEQMKQTLASYQSRLHELSAATLAIGQEMGFSLRGWVVEEAQLFHYVVTKHNESDDSILTKVLAEMQARGLLDGMHIHGNGNNLAFLPEGLAKRYAVQEWLRRDLAINGERPVLGFGDSITDLGFMDECHWWATPARSQLAKMFVGAAHE” here?
**A.** Its value is “not soluble”.

**Q.** For “MSNEGSREESREPEAREGKSDEIFEVEKILAHKVTDNLLVLQVRWLGYGADEDTWEPEEDLQECASEVVAEYYKKLKVTDKTELIELLQKQIKKNKSQKSKKRSKTVSDHESNHDSDGSYGTPKTSKKSKKSAKNETPVSSKVPKVPTKAALKSYEATVSGPVAPNNAKKAAMEVRDTRRNWLDEESSDDEAETTAPLSDVEKIASKVKVVKAVEEKAEEPVKRPSTPPKPREVVIKKDPSESPVASASSVIPTSKRKSINAETSNGRQRTLAPPVIVKDETTWTVDGIARHTDVDNTKTKLILMTNSATGERKVVEGREAFELDGWALAKYLLDRCEF”, which “soluble on expression in E. coli” value is on record?
**A.** The value was “soluble”.

**Q.** Which “soluble on expression in E. coli” value does the source give for “MSNKGGGQRSGEIGVDELWTVYKSFIRETGLARQHLDSFNRLVTQEIQKIIDSIREVRPQWRIYAGRRRYRRGRFEEHEIHLPDVKIVFGKARFKEPMAREVIESFDRRVTPFECRVRGITYSAPLMVEMTIVQDNMIEKTREVKIADFPVMVKSVLDPLSKYDEETVIEMGEDPGDPGGYFIINGSEKVIVAQEDLAVNRIIVNKSTAATARITHTAKAVSTVLGLRRQAIVDRMSDGTLEASLSRLRYRIPLVVLLRALGLEKDMEIMLAVSADPDVQREMLPSLEKGRALAPTKEDALKYLGNRIAPGQPLDVRIRRAEEFLDTQLLPHLGNRPEDRIKKAYFLAEMANRVLQLYLGKRGEDDKDFLGNKRLRLAGDLIAELFRESLEALANTMAQKLEEQLAERRQIRLDFLVRPTIISDRLKGAIATGNWGQDRTGISQQLDRTNWISLLSHLRRVISPLSRGQAHFEARDLHGSHWGRYCPFETPEGINCGLVKNLALSAYISVGVDESVVEEILVKDLGVAPLERILEEAKQAGEPPEIMLKGTKVFINGRPLGYHPNGAELARKIRELRRSDKLEVERPWEVSVYHLREGEIDELYVNTDSGRLMRPVVVVENGEPKLTREHVEKLSRGEITFWDLVKQGVVEMLDPEEEQNALIAELPWEVTKEHTHMELWVPAIVGVAAATIGYLEHNQSPRNTYQAAMAKQALGVYALNYRIRLDSHSYLLQYPQVPIVQTRMLDIMGYNERPAGQNMVVAIMSYTGYNIEDALIFNKGSIDMGLARAYFFRVYTGIENEYPGGERDRITLPKPDEVYDYRGAAAYAKLEADGIVAPETEVEGGEILIGRVSPPRFLGEGRVISMATVRRRDTSIPMRLGEKGVVDMVVISTTVERNKLVKVRVRNLRIPEIGDKFASRHGQKGVIGMIFPRYDMPYTEEGIEPDVILNPHAIPSRMTVGQLLEEIAGKLGAIKGRFVDATPFFKEDIDGLRIELLKEGYDPNAREVMYDGRTGQIIEAPITIGVAYYQRLYHMVADKIHARATGRVHLLTRQPTEGKARQGGLRFGEMERDCLVGHGASMLLRDRMLDNSDAYVMYVCNTCGNIAWFNRRKKVLECPIHGEEGDIRPVKVPYAFKLLLQEITSMMIKPELKVADKISVIRKVVGDYT” here?
**A.** Its value is “soluble”.

**Q.** For “MSNLRIAYDRLRSMSRTEENPTVQAMQIALHIPKNDPPARSEILQAAAQAVVACCLSEESVTDEWYGNRLQQWYDHRIRKVARRGRNAAWERVTTLPGVSSVSGSAEARAFVPGPVDSVDPLLKKLQISHTDVPFDSPADPTEGPVLYVDRGLGMSVGKTAAQVGHGSMLLAAAQPFEWVERWADQGYRLSVREVDSEVFRKAAEQPGAVHVIDAGFTEVAPSSLTVVALPMLLF”, which “soluble on expression in E. coli” value is on record?
**A.** The value was “not soluble”.
